Reference: patent publication US20250035612A1 (NEURIMMUNE, published 2025)
Ends that are not written are not given here. * marks the point of attachment. Biotin = O=C1N[C@H]2[C@H](CS[C@H]2CCCCC(=O)*)N1; Ahx = NCCCCCC(=O)O

Tests used:
[1] = target: T1, cyclic peptide TTR34-54cyc (cyclized via disulfide bridge between two cysteine residues within the poly-glycine stretch); assay: cell-based or functional assay
[2] = target: fluorescently labeled misfolded TTR aggregates of the monomeric F87M/L110M-TTR mutant (mis.TTR-488) (UniProt P02766 21-147); assay: cell-based or functional assay
[3] = target: T1, cyclic peptide TTR34-54cyc; assay: cell-based or functional assay; remark: listed apart in the source
[4] = target: T1, cyclic peptide TTR34-54cyc; assay: ELISA, coated peptide at 10 µg/ml, reference mis.WT-TTR
Procedure: (§1) In particular, 96-well microplates were coated for 1 hour at 37° C. with TTR34-54cyc, TTR40-49, Biotin. TTR40-449, and mis-WT-TTR (FLISA-1) and with TTR34-54cyc, Biotin. TTR34-54cyc, TTR40-49, Biotin. TTR40-449, and mis-WT-TTR (ELISA-2), respectively, wherein each target antigen has been diluted to a concentration of 10 μg/ml in PBS buffer pH 7.4. Non-specific binding sites were blocked for 1 hour at room temperature (RT) with a blocking buffer containing 2% bovine serum albumin (BSA) and 0.1% tween-20 in PBS buffer. […] Binding was determined using an anti-human IgG antibody conjugated with horseradish peroxidase (HRP), followed by measurement of HRP activity in a standard colorimetric assay (ThermoFisher Scientific Inc., Waltham, Massachusetts, USA). Data were analyzed with the Prism software from GraphPad. ECso values were estimated using non-linear regression of individual data points using log (agonist) versus response model with variable slope. Data fitting was performed with the least square regression method.

Biotin.TTR34-54cyc [5] = target: T2, Biotin.TTR34-54cyc (N-terminal Biotin-(Ahx): amino hexanoic acid spacer between the N-terminus and the biotin residue; cyclized via disulfide bridge between the two cysteine residues); assay: as above
T2 construct: Biotinylated form of TTR34-54cyc; also called biotinylated TTR34-54cyc
Procedure: as §1

[6] = target: T1, cyclic peptide TTR34-54cyc; assay: ELISA-1, coated TTR34-54cyc at 10 µg/ml, anti-human IgG-HRP detection
Procedure: as §1

[7] = target: T1, cyclic peptide TTR34-54cyc; assay: ELISA-2, coated TTR34-54cyc at 10 µg/ml, anti-human IgG-HRP detection
Procedure: as §1

TTR peptide TTR40-49 = target: T3, TTR peptide TTR40-49; assay: ELISA-1 and ELISA-2, peptide coated at 10 µg/ml, anti-human IgG-HRP detection
T3 peptide: H-TWEPFASGKT-OH
Procedure: as §1

Biotin.TTR40-49 = target: T4, Biotin.TTR40-49; assay: as above
T4 construct: also called Biotin; TTR40-449; biotinylated TTR peptide TTR40-49
T4 peptide: {Biotin-Ahx}-TWEPFASGKT
Procedure: as §1

Biotin.TTR34-54cyc [8] = target: T2, Biotin.TTR34-54cyc; assay: ELISA (ELISA-2), plate coated with Biotin.TTR34-54cyc at 10 µg/ml, antibody titrated
Procedure: as §1

T1 sequence (peptide, as listed by the source): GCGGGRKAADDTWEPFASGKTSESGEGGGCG
T2 sequence (peptide, as listed by the source): as above

EC50 of the FcγR1 ADCP reporter assay, first experiment (FIG. 11); plate coated with 3 µg/mL TTR34-54cyc, NI-301.37F1 RS dilutions 500-0.4 ng/ml [1]: 0.0198 mg/L
EC50 of the mis.TTR-488 phagocytosis dose-response in THP1 cells, 0.7x_NI-301.37F1_3 (nominal concentration; sample at 0.7x of the reference) [2]: 1.5 nM
EC50 of the mis.TTR-488 phagocytosis dose-response in THP1 cells, 1x_NI-301.37F1_3 [2]: 1.2 nM
EC50 of the mis.TTR-488 phagocytosis dose-response in THP1 cells, NI-301.37F1_W1 GMP DS [2]: 0.54 nM
EC50 of the mis.TTR-488 phagocytosis dose-response in THP1 cells, NI-301.37F1_W1 non-GMP DP [2]: 0.92 nM
EC50 (ng/mL) of the FcγR1 ADCP reporter assay, plate coated with TTR34-54cyc; reference sample (RS) 100%, run with the 50% test sample [3]: 19.8 ng/mL
EC50 (ng/mL) of the FcγR1 ADCP reporter assay, plate coated with TTR34-54cyc; reference sample (RS) 100%, run with the 70% test sample [3]: 19.8 ng/mL
EC50 (ng/mL) of the FcγR1 ADCP reporter assay, plate coated with TTR34-54cyc; reference sample (RS) 100%, run with the 130% test sample [3]: 17.6 ng/mL
EC50 (ng/mL) of the FcγR1 ADCP reporter assay, plate coated with TTR34-54cyc; reference sample (RS) 100%, run with the 150% test sample [3]: 19.3 ng/mL
EC50 (ng/mL) of the FcγR1 ADCP reporter assay, plate coated with TTR34-54cyc; test sample 50% (nominal concentration) [3]: 39 ng/mL
EC50 (ng/mL) of the FcγR1 ADCP reporter assay, plate coated with TTR34-54cyc; test sample 70% (nominal concentration) [3]: 30.4 ng/mL
EC50 (ng/mL) of the FcγR1 ADCP reporter assay, plate coated with TTR34-54cyc; test sample 130% (nominal concentration) [3]: 13.6 ng/mL
EC50 (ng/mL) of the FcγR1 ADCP reporter assay, plate coated with TTR34-54cyc; test sample 150% (nominal concentration) [3]: 13.5 ng/mL
fold stronger binding than to mis. WT-TTR [4]: ~10 fold
fold stronger binding than to mis. WT-TTR (Biotin.TTR34-54cyc [5]): ~10 fold
EC50 [6]: 0.027 nM
EC50 [7]: 0.66 nM
binding result (TTR peptide TTR40-49): no binding
binding result (Biotin.TTR40-49): no binding
EC50 (read off the curve) (Biotin.TTR34-54cyc [8]): ~0.6 nM
B1: anti-TTR antibody NI-301.37F1 (antibody, V domains shown)
VH: QVQLQESGPGLVKPSETLSLTCSVSGGSIISRSSYWGWIRQPPGKGLEWIGGIYHSGNTYDNPSLKSRLTMSVDTSKNQFSLNLRSVTAADTAVYYCARIVPGGDAFDIWGQGTMVTVSS
VL: DIQMTQSPSSLSASVGDRVTIACRASQSVGTYLNWYQQKRGKAPKLLIFAASSLQSGVPSRFSGSGSGTDFTLTISSLQPEDFATYYCQQSYSSPPTFGQGTKVEIK
notes: detected with anti-human IgG; also called 37F1_3
